Measured values from US20140106982A1.

Tests used:
[1] = target: mAb 2H1; experiment: VLP library affinity selection on 2H1, clones sequenced
[2] = target: 2C7 antibody; experiment: VLP library affinity selection on 2C7, clones sequenced

Substance	copies among sequenced affinity-selected clones [1]	copies among sequenced affinity-selected clones [2]
DTQCQF (peptide)	17 copies	–
ELWRGT (peptide)	–	2 copies
LDYEGN (peptide)	–	1 copy
LDYERI (peptide)	–	3 copies
LDYMRT (peptide)	–	4 copies
LDYQRV (peptide)	–	7 copies
PLWKGN (peptide)	–	1 copy
PLWRGT (peptide)	–	1 copy
VDYERI (peptide)	–	2 copies
WDATLQPA (peptide)	2 copies	–
WTADLQPE (peptide)	1 copy	–
